The values that follow come from US7285395B2, “Stearoyl-CoA desaturase 4 gene” (Wisconsin Alumni Research Foundation, priority 2004, dated 2007).

This assay concerns ob/ob mice. The experiment in a line: food intake and body weight of ob/ob mice under subcutaneous leptin treatment. The format is in vivo, mouse. Particulars: leptin 200 ng/h subcutaneous miniosmotic pump. The protocol:
Subcutaneous Leptin Treatment—ob/ob mice were individually caged and allowed to acclimate for a number of days prior to the start of the experiment. The mice were treated with 200 ng/h of recombinant mouse leptin (Amgen, Thousand Oaks, Calif.) […] phosphate-buffered saline (PBS) for 12 days using subcutaneously placed Alzet miniosmotic pumps model 1002 (AlZa Co., Palo Alto, Calif.) as described in Soukas, A. et al. (2000) Genes Dev. 14, 963-980, which is herein incorporated by reference in its entirety. As an additional control, a group of mice referred to as pair-fed was treated with PBS and given the same amount of food to eat as leptin-treated mice voluntarily consumed. All of the data presented were generated from this or a similar time course where mice were either treated with PBS or leptin for 12 days. Body mass and food intake were measured daily.
ob/ob mice have a mutation in the leptin gene and are a model of obesity, insulin resistance, and diabetes. […] We analyzed the mRNA level of the SCD4 isoform in the hearts of leptin-deficient ob/ob mice and ob/ob mice treated with either PBS or leptin. As an additional control, RNA isolated from saline-treated ob/ob mice that were pair-fed to the leptin treated group for 12 days was also analyzed. […] To determine which SCD isoform(s) accounted for these effects, we measured RNA levels of mSCD1, mSCD2, and mSCD4. […]

B1: leptin: recombinant mouse leptin (Amgen, Thousand Oaks, Calif.) (protein, UniProt P41160 22-167, looked up)
Leptin: VPIQKVQDDTKTLIKTIVTRINDISHTQSVSAKQRVTGLDFIPGLHPILSLSKMDQTLAVYQQVLTSLPSQNVLQIANDLENLRDLLHLLAFSKSCSLPQTSGLQKPESLDGVLEASLYSTEVVALSRLQGSLQDILQQLDVSPEC
In turn, B1 showed a food intake (after 12 days of treatment) of 1.2 ± 0.1 g. Also, the “loss of initial weight” value (end of 12-day treatment) was found to be 34±0.8%.
